Details in all cases: both partners purified
Experiment [1] concerns the target T1, Purified MPK9‐V5‐His6 with the RVSF motif maintained (MPK9^RVSF), as used with PP1 (Arabidopsis thaliana, UniProt Q9LV37 1-510).
T1 construct: MAP kinase 9 (MPK9), Arabidopsis thaliana, At3g18040, synthesized gene codon optimized for bacteria, in pDEST42; Same construct as m2; also called MPK9^RVXF; MPK9^RVxF; source: E. coli BL21 (DE3) CodonPlus‐RIL, purified (Ni‐NTA)
T1 sequence (looked up): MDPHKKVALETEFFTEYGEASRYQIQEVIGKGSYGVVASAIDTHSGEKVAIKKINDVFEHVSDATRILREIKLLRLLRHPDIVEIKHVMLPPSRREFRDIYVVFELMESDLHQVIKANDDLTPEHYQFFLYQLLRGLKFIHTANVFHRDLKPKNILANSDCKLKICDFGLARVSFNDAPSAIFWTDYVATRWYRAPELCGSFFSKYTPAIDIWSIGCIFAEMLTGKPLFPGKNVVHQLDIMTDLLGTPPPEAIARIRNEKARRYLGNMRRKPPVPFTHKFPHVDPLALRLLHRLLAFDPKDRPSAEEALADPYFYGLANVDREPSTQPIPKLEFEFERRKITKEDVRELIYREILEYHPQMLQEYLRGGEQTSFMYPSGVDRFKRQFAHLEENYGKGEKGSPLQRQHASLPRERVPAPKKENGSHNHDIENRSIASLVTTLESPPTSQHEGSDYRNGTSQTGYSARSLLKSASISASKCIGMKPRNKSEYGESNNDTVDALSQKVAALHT
The experiment in a line: pull-down; TOPP5 (1 μg) and MPK9^RVXF or MPK9^RASA (5 μg) incubated 1 h at RT, then with BSA‐blocked Ni‐NTA 1 h at RT; washed with 50 mM HEPES pH 7.5, 300 mM NaCl, 0.1% Tween 20; western blot (V5, pan‐TOPP). In general terms: A western blot detects proteins with antibodies after separation by electrophoresis.

Experiment [2] deals with T1, Purified MPK9‐V5‐His6 with the RVSF …. As to the kind of experiment: far-Western, overlay or dot blot; MPK9^RVXF and MPK9^RASA run on SDS‐PAGE, blotted to nitrocellulose, probed with PP1 (TOPP) isoforms (2 μg/mL) for 4 h in TBS plus 5% milk powder; PP1 detected with anti‐TOPP antibody.
Experiment [3] has as its target T2, MPK9‐V5‐His6, full‐length, activated/phosphorylated (MPK9^TDY) (Arabidopsis thaliana, UniProt Q9LV37 1-510, phospho-threonine and phospho-tyrosine of the activation loop TDY motif (autophosphorylated; dual phosphorylated pTxpY)).
T2 construct: MAP kinase 9 (MPK9), Arabidopsis thaliana, At3g18040, synthesized gene codon optimized for bacteria, in pDEST42; Printed as MPK9-V5-His6 (tags written after the name); also called MAP kinase 9; ATMPK9; source: E. coli BL21 (DE3) CodonPlus‐RIL, purified (Ni‐NTA), then autophosphorylated with Mg‐ATP
T2 sequence (looked up): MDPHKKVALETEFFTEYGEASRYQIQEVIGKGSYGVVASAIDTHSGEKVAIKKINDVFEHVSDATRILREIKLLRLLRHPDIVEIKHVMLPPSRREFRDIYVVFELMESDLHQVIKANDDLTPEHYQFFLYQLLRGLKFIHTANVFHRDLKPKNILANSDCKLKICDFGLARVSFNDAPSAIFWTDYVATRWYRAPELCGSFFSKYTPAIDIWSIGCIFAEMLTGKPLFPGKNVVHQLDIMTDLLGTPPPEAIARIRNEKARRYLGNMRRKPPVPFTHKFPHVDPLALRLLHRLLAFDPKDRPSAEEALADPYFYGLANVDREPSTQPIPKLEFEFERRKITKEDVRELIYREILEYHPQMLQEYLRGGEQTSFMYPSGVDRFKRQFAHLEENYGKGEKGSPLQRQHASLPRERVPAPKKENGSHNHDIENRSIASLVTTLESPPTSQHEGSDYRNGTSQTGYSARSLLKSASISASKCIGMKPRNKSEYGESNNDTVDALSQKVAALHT
As to the kind of experiment: far-Western, overlay or dot blot; purified activated MPKs dotted onto nitrocellulose, blocked, overlaid with purified RLPH2 (1.5 μg/mL), detected with anti‐RLPH2 antibody; in triplicate.

B1: Arabidopsis PP1 isoform 5 (TOPP5) (enzyme, Arabidopsis thaliana, UniProt P48485 1-312, looked up)
chain: MAQQGQGSMDPAVLDDIIRRLLDYRNPKAGTKQAMLNDSEIRQLCFVSREIFLQQPCLLELAAPVKICGDIHGQYSDLLRLFEYGGFPPAANYLFLGDYVDRGKQSLETICLLLAYKIKYPENFFLLRGNHECASINRIYGFYDECKRRFNVKLWKVFTDTFNCLPVAAVIDEKILCMHGGLSPELINVEQIKNIERPTDVPDAGLLCDLLWSDPSKDVKGWGMNDRGVSYTFGADKVAEFLIKNDMDLVCRAHQVVEDGYEFFADRQLVTMFSAPNYCGEFDNAGALMSVDESLMCSFQILKPVDRRSRFF
notes: Type one protein phosphatase 5 (TOPP5), PP1 catalytic subunit, Arabidopsis thaliana; also called AtPP1; source: recombinant, purified on microcystin‐Sepharose (as in Templeton et al. 2011)
For the molecule B1, the binding result in experiment [1] is “binds”.

B2: Arabidopsis PP1 isoform 1 (TOPP1) (enzyme, Arabidopsis thaliana, UniProt P30366 1-318, looked up)
chain: MAEKPAQEQEQKRAMEPAVLDDIIRRLVEFRNTRPGSGKQVHLSEGEIRQLCAVSKEIFLQQPNLLELEAPIKICGDIHGQYSDLLRLFEYGGFPPEANYLFLGDYVDRGKQSLETICLLLAYKIKYPENFFLLRGNHESASINRIYGFYDECKRRFNVRLWKIFTDCFNCLPVAALIDDRILCMHGGISPELKSLDQIRNIARPMDIPESGLVCDLLWSDPSGDVGWGMNDRGVSYTFGADKVAEFLEKHDMDLICRAHQVVEDGYEFFAERQLVTVFSAPNYCGEFDNAGAMMSIDESLMCSFQILKPSEKKSPFL
notes: Type one protein phosphatase 1 (TOPP1), PP1 catalytic subunit, Arabidopsis thaliana; source: recombinant, purified on microcystin‐Sepharose (as in Templeton et al. 2011)
Consider B2, for which the binding result in experiment [2] is listed as “binds”.

B3: Arabidopsis PP1 isoform 4 (TOPP4) (enzyme, Arabidopsis thaliana, UniProt P48484 1-321, looked up)
chain: MATTTTTQGQQTAIDSAVLDDIIRRLTEVRLARPGKQVQLSEAEIKQLCTTARDIFLQQPNLLELEAPIKICGDIHGQYSDLLRLFEYGGFPPSANYLFLGDYVDRGKQSLETICLLLAYKIKYPGNFFLLRGNHECASINRIYGFYDECKRRFNVRVWKVFTDCFNCLPVAALIDDKILCMHGGLSPDLDHLDEIRNLPRPTMIPDTGLLCDLLWSDPGKDVKGWGMNDRGVSYTFGPDKVSEFLTKHDLDLVCRAHQVVEDGYEFFADRQLVTVFSAPNYCGEFDNAGAMMSVDENLMCSFQILKPAEKKTKFMMSTKI
notes: Type one protein phosphatase 4 (TOPP4), PP1 catalytic subunit, Arabidopsis thaliana; source: recombinant, purified on microcystin‐Sepharose (as in Templeton et al. 2011)
Turning to B3, the binding result in experiment [2] is given as “binds”.

B4: Arabidopsis PP1 isoform 9 (TOPP9) (enzyme, Arabidopsis thaliana, UniProt Q9M9W3 1-318, looked up)
chain: MMTSMEGMMEMGVLDDIIRRLLEGKGGKQVQLSEVEIRQLCVNARQIFLSQPNLLELHAPIRICGDIHGQYQDLLRLFEYGGYPPSANYLFLGDYVDRGKQSLETICLLLAYKIRYPSKIFLLRGNHEDAKINRIYGFYDECKRRFNVRLWKIFTDCFNCLPVAALIDEKILCMHGGLSPELENLGQIREIQRPTEIPDNGLLCDLLWSDPDQKNEGWTDSDRGISCTFGADVVADFLDKNDLDLICRGHQVVEDGYEFFAKRRLVTIFSAPNYGGEFDNAGALLSVDQSLVCSFEILKPAPASSTNPLKKVPKMGKS
notes: Type one protein phosphatase 9 (TOPP9), PP1 catalytic subunit, Arabidopsis thaliana; source: recombinant, purified on microcystin‐Sepharose (as in Templeton et al. 2011)
For B4, the binding result in experiment [2] is on record as “binds”.

B5: Arabidopsis PP1 isoform 3 (TOPP3) (enzyme, Arabidopsis thaliana, UniProt P48483 1-322, looked up)
chain: MEDSVVDDVIKRLLGAKNGKTTKQVQLTEAEIKHLCSTAKQIFLTQPNLLELEAPIKICGDTHGQFSDLLRLFEYGGYPPAANYLFLGDYVDRGKQSVETICLLLAYKIKYKENFFLLRGNHECASINRIYGFYDECKKRYSVRVWKIFTDCFNCLPVAALIDEKILCMHGGLSPELKHLDEIRNIPRPADIPDHGLLCDLLWSDPDKDIEGWGENDRGVSYTFGADKVEEFLQTHDLDLICRAHQVVEDGYEFFANRQLVTIFSAPNYCGEFDNAGAMMSVDDSLTCSFQILKASEKKGNFGFGKNAGRRGTPPRKGGGKG
notes: Type one protein phosphatase 3 (TOPP3), PP1 catalytic subunit, Arabidopsis thaliana; source: recombinant, purified on microcystin‐Sepharose (as in Templeton et al. 2011)
As to B5, in experiment [2], the binding result is “binds”.

B6: Arabidopsis PP1 isoform 2 (TOPP2) (enzyme, Arabidopsis thaliana, UniProt P48482 1-312, looked up)
chain: MAQQGQGSMDPAALDDIIRRLLDYRNPKPGTKQAMLNESEIRQLCIVSREIFLQQPNLLELEAPIKICGDIHGQYSDLLRLFEYGGFPPTANYLFLGDYVDRGKQSLETICLLLAYKIKYPENFFLLRGNHECASINRIYGFYDECKRRFSVRLWKVFTDSFNCLPVAAVIDDKILCMHGGLSPDLTNVEQIKNIKRPTDVPDSGLLCDLLWSDPSKDVKGWGMNDRGVSYTFGPDKVAEFLIKNDMDLICRAHQVVEDGYEFFADRQLVTIFSAPNYCGEFDNAGAMMSVDESLMCSFQILKPADRKPRFL
notes: Type one protein phosphatase 2 (TOPP2), PP1 catalytic subunit, Arabidopsis thaliana; source: recombinant, purified on microcystin‐Sepharose (as in Templeton et al. 2011)
With B6, the binding result in experiment [2] is on record as “binds”.

B7: Arabidopsis thaliana Rhizobiales‐like phosphatase 2 (RLPH2‐V5‐His6) (enzyme, UniProt Q9SR62 1-309, looked up)
chain: MAQKPRTVICVGDIHGYISKLNNLWLNLQSAIDPSDFSSALVIFLGDYCDRGPETRKVIDFLISLPEKHPDQTHVFLAGNHDFAFSGFLGLLPRPSDGSDLKDTWKEYSKSEETEGWYTGEGFEDMHLQGRRWAGKIKATFNSVKGMAYKGSIYDAGSTFESYGVPHGSSDLMKAVPESHKKFLTNMVWVHEEDDVCIETEEGLKHCKLIAVHAGLEKGNNVEEQLKLLRAKDTSISKIQHLSGRKNVWDIPQELDDKHTVVVSGHHGKLHIDGMRLIIDEGGGFPDKPVAAIVLPSKKIIRDTDNLSS
notes: Rhizobiales-like phosphatase 2 (RLPH2), Arabidopsis thaliana; Printed as RLPH2-V5-His6 (tags written after the name); source: bacterially expressed, purified (as in Uhrig et al. 2016)
On to B7, for which, in experiment [3], the binding result is listed as “binds”.

B8: Arabidopsis PP1 isoform 8 (TOPP8) (enzyme, Arabidopsis thaliana, UniProt O82734 1-324, looked up)
chain: MMTSMEGMVEKGVLDDIIRRLLEGKGGKQVQLSESEIRQLCFNARQIFLSQPNLLDLHAPIRICGDIHGQYQDLLRLFEYGGYPPSANYLFLGDYVDRGKQSLETICLLLAYKIRYPSKIYLLRGNHEDAKINRIYGFYDECKRRFNVRLWKVFTDCFNCLPVAALIDEKILCMHGGLSPDLDNLNQIREIQRPIEIPDSGLLCDLLWSDPDQKIEGWADSDRGISCTFGADKVAEFLDKNDLDLICRGHQVVEDGYEFFAKRRLVTIFSAPNYGGEFDNAGALLSVDESLVCSFEIMKPAPASSSHPLKKDFHNRTLGYNLSA
notes: Type one protein phosphatase 8 (TOPP8), PP1 catalytic subunit, Arabidopsis thaliana; source: recombinant, purified on microcystin‐Sepharose (as in Templeton et al. 2011)
As for B8, in experiment [2], the binding result is recorded as “binds”.

For the origin of these results see paper PMC12817480, “Phospho‐Proteomics Identifies D‐Group MAP Kinases as Substrates of the Arabidopsis Tyrosine Phosphatase RLPH2” (Plant Direct, 2026).
